The target in experiment [1] is T1, human GPC3 on cells (human, UniProt P51654 25-554). The experiment can be described thus: FACS, HEPG2 cells. In general terms: In flow cytometry, cells or beads pass a laser one at a time.
Experiment [2] deals with T1, human GPC3 on cells. Description: cell-based or functional assay.
In experiment [3] the target is T1, human GPC3 on cells. The experiment can be described thus: FACS, GPC3-CHOK1 cells.
For experiment [4], the target named is T1, human GPC3 on cells. Description: FACS, GPC3-CHOK1 cells. The source holds these as a separate data set.
In experiment [5] the target is T1, human GPC3 on cells. The experiment can be described thus: FACS, Huh-7 cells.
The target of experiment [6] is T1, human GPC3 on cells. Description: FACS, HEPG2 cells. This is another data set of the same source.
For experiment [7], the target named is T1, human GPC3 on cells. Description: FACS, Huh-7 cells. An excerpt: (§1) FACS was used to evaluate the binding activity of Hu 52H5D3B8-7 and Hu 52H5D3B8-8 with comparison to benchmark antibodies GC33 and Y035 on human GPC3 expressed on CHOK1 cells, Huh-7 cell and HEPG2 cells. In order to evaluate the properties of CDRs and frameworks of Hu 52H5D3B8-7 Ab, two chimeric antibodies were generated. The antibody termed “Hu 52H5D3B8-7/8 CDRs with Y035 FRs” contains the Hu 52H5D3B8-7 CDRs and the Y035 FRs. The antibody termed “Y035 CDRs with Hu 52H5D3B8-7 FRs” represents the chimeric antibody with the Y035 CDRs engrafted to Hu 52H5D3B8-7 FRs.

Experiment [8] deals with T1, human GPC3 on cells. Description: cell-based or functional assay. This is another data set of the same source.
The target of experiment [9] is T1, human GPC3 on cells. The experiment can be described thus: FACS, GPC3-CHOK1 cells.
Excerpt: as §1

Experiment [10] has as its target T1, human GPC3 on cells. Description: FACS, HEPG2 cells.
Excerpt: as §1

Experiment [11] concerns the target T1, human GPC3 on cells. Description: cell-based or functional assay. This is another data set of the same source.
Experiment [12] deals with T1, human GPC3 on cells. The experiment can be described thus: cell-based or functional assay. The source holds these as a separate data set.
Experiment [13] addresses T1, human GPC3 on cells. The experiment can be described thus: FACS, GPC3-CHOK1 cells. The protocol: To evaluate the antigen binding property, the affinity maturated antibodies were analyzed for their binding to human GPC3 over-expressed CHOK1 cells by FACS as previously described.
The source holds these as a separate data set.

In experiment [14] the target is T1, human GPC3 on cells. The experiment can be described thus: FACS, Huh-7 cells. Here is the method:
(§2) To evaluate the antigen binding property, the humanized antibodies were analyzed for their binding to human GPC3 over-expressed CHOK1 cells and Huh-7 cells by FACS. Briefly, GPC3-CHOK1 cells and Huh-7 cells were firstly incubated with Fc blocking reagent at 4° C. for 15 mins. Cells were washed by FACS buffer and divided to each well with 4-fold serially diluted humanized antibodies starting at 10 μg/mL at 4° C. for 60 mins. Cells were washed by FACS buffer and fixed with 2% PFA at RT for 15 mins. […] As different plates might affect the EC50 of 52H5D3B8-VH+VL, the 12 humanized antibodies were separated into two plates.
The source holds these as a separate data set.

Experiment [15] has as its target T2, human GPC3-his tag protein (human, UniProt P51654 25-559, limits assumed).
T2 construct: recombinant soluble antigen used as analyte in all Biacore runs; also called recombinant GPC3 protein; rhGPC3-His; not shown: His tag
The experiment can be described thus: SPR Biacore 8K, mAb captured, affinity ranking. Here is the method:
To evaluate antigen binding activity, the chimeric antibody's affinity was measured by Biacore 8K. Two concentrations with most close affinity to the chimeric antibody's affinity were chosen for the 12 humanized antibodies' affinity detection. Human GPC3-his tag protein was injected over captured antibody for 3 mins at a flow rate of 30 μl/min. The antigen was allowed to dissociate for 720 s.
In general terms: Surface plasmon resonance follows binding to a sensor surface in real time, without labels.

Experiment [16] has as its target T1, human GPC3 on cells. The experiment can be described thus: FACS, GPC3-CHOK1 cells. Here is the method: as §2
This is another data set of the same source.

Experiment [17] addresses T1, human GPC3 on cells. The experiment can be described thus: FACS, GPC3-CHOK1 cells. Here is the method: as §2
This is another data set of the same source.

The target in experiment [18] is T1, human GPC3 on cells. The experiment can be described thus: FACS, Huh-7 cells. The protocol:
as §2
This is another data set of the same source.

Where a chain is given by its changes, count along the chain named. Read-outs that look alike come from different tables or passages of the source.

B1: Y035 (Carsgen Therapeutics, US20190046659) (antibody, from another filing, V domains shown)
VH: EVQLVQSGAEVKKPGASVKVSCKASGYTFSDYEMHWVRQAPGQGLEWMGAIHPGSGDTAYNQRFKGRVTITADKSTSTAYMELSSLRSEDTAVYYCARFYSYAYWGQGTLVTVSA
VL: DIVMTQTPLSLPVTPGEPASISCRSSQSLVHSNGNTYLQWYLQKPGQSPQLLIYKVSNRFSGVPDRFSGSGSGTDFTLKISRVEAEDVGVYYCSQSIYVPYTFGQGTKLEIKR
For B1, the EC50 (commonly the concentration giving half of the maximal effect) worked out at 1.25 nM with human GPC3 on cells [1]; 1.46 nM in the experiment with human GPC3 on cells [3]; 1.42 nM in the experiment with human GPC3 on cells [4]; 1.18 nM with human GPC3 on cells [5]; 1.59 nM in the experiment with human GPC3 on cells [6]. Also, the internalization activity to HEPG2 cells, EC50 (pHAb dye fluorescence) in the experiment with human GPC3 on cells [2] stood at 1.08 µg/mL. Also, in the experiment with human GPC3 on cells [2], the internalization activity to HEPG2 cells, Top (pHAb dye fluorescence) was determined as 52000.

B2: Y035 CDRs with Hu 52H5D3B8-7 FRs (antibody, V domains shown)
VH: B1 VH with S30T, I70M, T76I, S85R, E89D, A97T, A115S
VL: DVVMTQTPLSLSVTPGQPASISCRSSQSLVHSNGNTYLQWYLQKPGQSPQLLIYKVSNRFSGVPDRFSGSGSGTDFTLKISRVEAEDVGVYYCSQSIYVPYTFGGGTKVEIK
On to B2, for which the EC50 with human GPC3 on cells [7] was determined as 0.667 nM; with human GPC3 on cells [9] it was 0.985 nM; with human GPC3 on cells [10] it was 1.05 nM. The “internalization activity to HEPG2 cells, EC50 (pHAb dye fluorescence)” value in the experiment with human GPC3 on cells [8] worked out at 1.11 µg/mL.

B3: Hu 52H5D3B8-7/8 CDRs with Y035 FRs (antibody, V domains shown)
VH: B1 VH with F29H, D57G, R63K
VL: B1 VL with Y98H
In the case of B3, the EC50 worked out at 0.782 nM with human GPC3 on cells [7], 0.798 nM in the experiment with human GPC3 on cells [9] and 1.16 nM in the experiment with human GPC3 on cells [10]. Further, in the experiment with human GPC3 on cells [8], the “internalization activity to HEPG2 cells, EC50 (pHAb dye fluorescence)” value came to 1.14 µg/mL.

B4: 52H5D3B8-18#-VH2+VL3 (antibody, V domains shown)
VH: QVQLVQSGAEVKKPGASVKVSCKASGYTFTRYEMHWVRQAPGQGLEWIGAIHPGSGGTAYNSKFKGRVTMTADTSTSTVYMELSSLRSEDTAVYYCTRYYSYAYWGQGTLVTVSS
VL: B2 VL with V2I, Q50K, F60Y, S94V, Q95E, Y98H, V109L
As to B4, in the experiment with human GPC3 on cells [11], the “EC50 of ADCC cytotoxicity (primary NK cells, LDH), HEPG2 cells” value (from here on “EC50 of ADCC cytotoxicity … HEPG2 cells”) stood at 0.149 nM and the “EC50 of ADCC cytotoxicity (primary NK cells, LDH), Huh-7 cells” value (from here on “EC50 of ADCC cytotoxicity … Huh-7 cells”) was found to be 0.0826 nM. In the experiment with human GPC3 on cells [12], the “EC50 of ADCC signaling (Jurkat-hCD16a-NFAT luciferase reporter), HEPG2 cells” value (from here on “EC50 of ADCC signaling … HEPG2 cells”) was 0.202 nM and the “EC50 of ADCC signaling (Jurkat-hCD16a-NFAT luciferase reporter), Huh-7 cells” value (“EC50 of ADCC signaling … Huh-7 cells” for short) came to 0.48 nM. The EC50 with human GPC3 on cells [13] came to 0.177 nM.

B5: Hu 52H5D3B8-12 (antibody, V domains shown)
VH: EVQLVQSGAEVKKPGASVKVSCKASGYTFTDYEMHWVRQAPGQGLEWIGAIHPGSGGTAYNQKFKGKATLTADKSISTAYMELSRLRSDDTAVYYCTRFYSYAYWGQGTLVTVSS
VL: B2 VL with Y92F, Y98H
notes: humanized 52H5D3B8; also called 52H5D3B8 VH5 + VL1
In the experiment with human GPC3 on cells [14], B5 showed an EC50 of 0.0294 µg/mL. Also, in experiment [15], the dissociation constant (Kd) (as a rule, the free concentration of one partner at which half of the binding sites on the other are occupied at equilibrium, for simple one-to-one binding) was 3.22 nM; the dissociation rate constant (koff) – broadly, a measure of how fast the partners let go of each other – was 0.001 s⁻¹; the kon (as a rule, the second-order rate constant of association) came out at 310000 M⁻¹ s⁻¹. This molecule also gave an EC50 in the experiment with human GPC3 on cells [16] of 0.0384 µg/mL.

B6: Hu 52H5D3B8-11 (antibody, V domains shown)
VH: B5 VH
VL: B2 VL with Y98H
notes: humanized 52H5D3B8; also called 52H5D3B8 VH5 + VL0
On to B6, for which the midpoint of the response with human GPC3 on cells [14], the EC50, lay at 0.0288 µg/mL. In addition, in experiment [15], the Kd was determined as 3.06 nM, the koff is 0.000905 s⁻¹ and the kon is 295000 M⁻¹ s⁻¹. Also, in the experiment with human GPC3 on cells [16], the EC50 is 0.04 µg/mL.

B7: 52H5D3B8-19#-VH2+VL3 (antibody, V domains shown)
VH: B4 VH with R31G, S62Q
VL: B2 VL with V2I, Q50K, S61A, S94V, Q95E, Y98H, V109L
On to B7, for which, in the experiment with human GPC3 on cells [11], the “EC50 of ADCC cytotoxicity … HEPG2 cells” value came out at 0.0852 nM and the “EC50 of ADCC cytotoxicity … Huh-7 cells” value was 0.0328 nM. Besides, in the experiment with human GPC3 on cells [12], the “EC50 of ADCC signaling … HEPG2 cells” value came out at 0.0844 nM and the “EC50 of ADCC signaling … Huh-7 cells” value is 0.266 nM. In the experiment with human GPC3 on cells [13], this molecule had an EC50 of 0.207 nM.

B8: Hu 52H5D3B8-8 (antibody, V domains shown)
VH: B5 VH with I48M, K67R, A68V, L70M
VL: B2 VL with Y92F, Y98H
notes: humanized 52H5D3B8; also called 52H5D3B8 VH3 + VL1
Consider B8, for which the EC50 with human GPC3 on cells [7] stood at 0.418 nM; with human GPC3 on cells [17] it was 0.0432 µg/mL; in the experiment with human GPC3 on cells [9], 0.434 nM; in the experiment with human GPC3 on cells [10], 0.693 nM; with human GPC3 on cells [18], 0.0233 µg/mL. Further, in experiment [15], the Kd is 3.31 nM. This molecule also showed an off-rate constant (koff) in [15] of 0.0011 s⁻¹. This molecule also had a kon in [15] of 332000 M⁻¹ s⁻¹. Further, the “internalization activity to HEPG2 cells, EC50 (pHAb dye fluorescence)” value with human GPC3 on cells [8] was found to be 0.78 µg/mL.

B9: Hu 52H5D3B8-10 (antibody, V domains shown)
VH: B5 VH with K67R, A68V
VL: B2 VL with Y92F, Y98H
notes: humanized 52H5D3B8; also called 52H5D3B8 VH4 + VL1
Consider B9, for which the EC50 in the experiment with human GPC3 on cells [14] was 0.0323 µg/mL. Further, in experiment [15], binding was characterised by a dissociation constant (Kd) of 3.89 nM, the koff is 0.00104 s⁻¹ and the kon is 267000 M⁻¹ s⁻¹. Besides, the 50% effective concentration (EC50) with human GPC3 on cells [16] came to 0.0389 µg/mL.

B10: Hu 52H5D3B8-7 (antibody, V domains shown)
VH: B5 VH with I48M, K67R, A68V, L70M
VL: B2 VL with Y98H
notes: humanized 52H5D3B8; also called 52H5D3B8 VH3 + VL0
As to B10, the EC50 stood at 0.464 nM in the experiment with human GPC3 on cells [7]; 0.0447 µg/mL in the experiment with human GPC3 on cells [17]; 0.467 nM in the experiment with human GPC3 on cells [9]; 0.757 nM with human GPC3 on cells [10]; 0.0242 µg/mL with human GPC3 on cells [18]. Also, the affinity in experiment [15], expressed as Kd, was 3.23 nM. This molecule also displayed a koff in [15] of 0.00103 s⁻¹. The kon in experiment [15] was 320000 M⁻¹ s⁻¹. Moreover, the “internalization activity to HEPG2 cells, EC50 (pHAb dye fluorescence)” value with human GPC3 on cells [8] turned out to be 0.72 µg/mL.

B11: 52H5D3B8-20#-VH2+VL3 (antibody, V domains shown)
VH: B4 VH with T28R, R31D, S62Q, K63L
VL: B2 VL with V2I, Q50K, S61P, S94V, Q95E, Y98H, V109L
B11: in the experiment with human GPC3 on cells [11], the “EC50 of ADCC cytotoxicity … HEPG2 cells” value came to 0.121 nM and the “EC50 of ADCC cytotoxicity … Huh-7 cells” value came to 0.0287 nM. Moreover, in the experiment with human GPC3 on cells [12], the “EC50 of ADCC signaling … HEPG2 cells” value stood at 0.0571 nM and the “EC50 of ADCC signaling … Huh-7 cells” value is 0.124 nM. Besides, in the experiment with human GPC3 on cells [13], the midpoint of the response, the EC50, lay at 0.207 nM.
